Experimental data: a protein production outcome set (Wang et al. 2014)

Test: label from the status in PepcDB records

Sequence | protein production
MLTSFKLHSLKPYTLKSSMILEIITYILCFFSMIIAFVDNTFSIKIYNITAIVCLLSLILRGRQENYNIKNLILPLSIFLIGLLDLIWYSAFKVDNSPFRATYHSYLNTAKIFIFGSFIVFLTLTSQLKSKKESVLYTLYSLSFLIAGYAMYINSIHENDRISFGVGTATGAAYSTMLIGIVSGVAILYTKKNHPFLFLLNSCAVLYVLALTQTRATLLLFPIICVAALIAYYNKSPKKFTSSIVLLIAILASIVIIFNKPIQNRYNEALNDLNSYTNANSVTSLGARLAMYEIGLNIFIKSPFSFRSAESRAESMNLLVAEHNRLRGALEFSNVHLHNEIIEAGSLKGLMGIFSTLFLYFSLFYIAYKKRALGLLILTLGIVGIGLSDVIIWARSIPIIIISAIVLLLVINNRNNTIN | failed
MLTTFLATVIGWYLVIVSLFLLFHNEHAKSAMAEIIAHRGSQLIMAIVTLITGLLLVVSHNIWVMGWPVVITLFAWLVLLGGLIRFLCPDTAVRIGQSFVDNPMRLKIAAVIFFIIGLFLLFNVYYVYLK | failed
MLTTLQNIMKLPNEIDEYLASRNFSENTRSNYHYDLVSLQAFFEDKSLTTENLELYKIQISNLSPAAQRRKISSANQYLLFLYQRQKVDQYFKIKQVVQKKSQTAQSYHPMIKEFPEFYGPLTCPGQFLALLILEFGLNFAEIQKLKWENFNWNFKYLTIEKAGIKRVLPIREKFAIRVKAINNADELFAKSRQFLYTELKKFTNYSSKEIREQYILHQVKAGKSIYELATLLGLTTITTLEKYYR | failed
MLTTNASSKIFSKASTAELVGHTRKVHCLSWNPKGGLLGSGGVDCVARIWDVEKLQQKAELEGHTSSIEQLKWDPTANVFFVSASLDHKVLFWDLRARNSEPVASVETQGENINLAWSQDGVYCAVGDKDDNLSFIDVRKFDFFERFQFAEEVNEFKWSPSGPFFFMTLGKEVLVFRWPTMEQQLRLQVHADRCYCLEFDRSGRYFALGGADSIISLWETEYMLCTWTVDRLEYPIRTISFSHDGQFIAAGSEDSVIDISDILNGRQTYALGVKGATNVVAWHPSRHLLAYATEEEYSRDGVAIHLYGTISKDNI | failed
MLTVTFTVSNTGDRAGAAVPQVYPGFPNTTIDRCVRELKAFRRVELEPGQRQTVTVALTRRDLSYWDILPHPLRSYAVGSILEHHHHHH | failed
MLVDSQYKECVKEIINWGLFLYSEESRRNLIHDSLVELRCHFTWELVIKDNYMPDLEAKILETEFLDTNYNMGMHNLMAYVRHLKGEQEEALQSLKEAEALIEGEQLGKRSLVTWGNCAWVHYHRGSLAEAQIYLDKVENVCREFASPFRYRMECAEIDCEEGWALLKCGGSNCTRAMACFAKALQEEPENPEYNAGYAITAFRMDFSNEISLEPLRKAVRLNPEDPHLKVLLALKLQDLGKQDEAEKHIEEALPKIPSRNNIFGYVAKFYRRKGCVEEALEFLERALKTKPSSVYLHFQIGLCHKSRVFQIKEATNMHPKGKDRERADQSIRSAIYYFEKTLDLKPTYERAYIDLAEMYAESKQFEEAEEAFQKVLSMLSNLEVHMQQEIHFRYGKFQQFHMKSENIAITHYLKGLKIEVTSIFRDKLLKALQKLAERRMQQNVHVLESLSLLGFVYRLKGDTRKAMSCYEKALRLTEELNPEF | failed
MLVFEIIIGLLLAGAALTALSRRIGTPYPALVALAGAALALVPGTPTLVLEPDLALTLFVAPVLLDAAYDASQRDLRASWRTVAGLAVGAVALTVVVVAVVARALVPGMPWAVAVALGAIVAPPDAAAATAVLGQLRPPHRLMVILEGESLFNDASALLVYRLAVGAALAGALSPVEVLPPLLASTAGSVALGYGLSRVIPPLIARIEDVPIAVVVQFCGTFAVWIVAERLHLSGILTVVVFAMASAQRAAGQMAARVRIPSYAVWGFAVFVLNVLAFILVGFQLKAILGRIDAPTLLRYAGVAGAVCLAAVVARIAWVSGTAAVSRLRCRPTEDGSKARPDTIGLSPRGAAVVGWCGMRGIVTLAAALALPTGARGAPPFPHRDLVVFTAFAVVLGTLVLQGMTLRPLMRALRLEGDRSVDREVRLARVETLRAGLSATDGAAGDPLSDVLRRRYELLLRGAEAELRGGAAPQAPPAGGDVDPRAGAAVARRAVEAERGRLLALRSDGTIGDAAFQRVEEELDLEELSLRRLARDGAREAS | failed
MLVLDVAARVWPFFLLVAAGVALSRLRLLDARMTQGLSAYVYWVGFPALLIHSLSRLGRPGPELWSGLAAYAAVGLAVMASLVVGGRALGWSRPERAGAAMAAGVGNSAFLAVPVTAAVLGAETARLVAGAIAADFVVLAAAGVGLLGWAAGRSVWRAMAQAFQNPVVIAALLGLLLALLNLALPQPLDRAVGLAAASGSPVGLVALGAALGLPQTEDEPGPRAGPVVLAALAKLLAFPLLVWLAIGLTPAPAEFRTGATLVAAAPTAVNVFIQTRAYGVWPRGAARIVALTTALAIVSLSLVAILLTARVS | failed
MLVLYRASIRFKLRKNKNSFDSSNYFYGGNNICIINTKWGKHSGIGGYAEIIDTLVGNFTNISSWAKIGIRDHIHTNFLICDFVYKDNDHIMPPGISSFEDYWVKIGNDVWVGTNVTILRGVEVGDGAVIAAGSVVTKSIPPYAIVGGNPAKFIKWRFPFEVREKLLEIKWWDWDDDLIKEKKDYLQNLVGFDMDKYKIEYRKRKEDLFYLEHHHHHH | not failed
MLVQKNEAFLWLHFYLISNFIVVIMQMFILVMYYLIIVDHSFVELNEQVNPLFSFLLFVFHSDLSFFPVLVQLIF | failed
MLVSLIYVFKQVLSANLDLFYILSLILLIKSLIKKEKYLIKLLYVIYIILFYTGIQIIFLNTSIDLIRYFVSSFKLILNFNLLFYIIKKIKFININKIIKNISYIFFIILVFALILRNNNILWRLNDYVNTFEEVRLRFFYYEPSELGFQVAIIIIIFVFKIYTKKIINKKDFCIIIFLSIILSLTSAYGAIISLMLALIPILFKSFKLNSYKKLLIAYSIILISIVIIYLNFYKISDSYIVQRGLSIISGEDGSVNYRFDIGLNIMINALKNTNLLGVGLSNANTDNFIIEYSNFGLVEVIANSFMYVITELGVLAVVFLVYLLIKCLISAKINNSILKLSLIIYIFSYQIAGGYFSNPTNWIIYGIILSNIKDEELFGRKD | failed
MLYIDKATILKFDLEMLKKHRRAIQFIAVLLFIVGLLCISFPFVSGDILSTVVGALLICSGIALIVGLFSNRSHNFWPVLSGFLVAVAYLLIGYFFIRAPELGIFAIAAFIAGLFCVAGVIRLMSWYRQRSMKGSWLQLVIGVLDIVIAWIFLGATPMVSVTLVSTLVGIELIFSAASLFSFASLFVKQQ | failed
MMAIQRVGIIGAGKVGIVLAGLALDAGYTVRISGSGSVKKIALTIKTLVPGAIASENADVVANSDIILLAIPLSRYKNIDADLLKGKLVIDAMNYWWETDGIREEVLDPSTTSSEQVQTYFKDAKIVKAFNHMGYHNLQEEARPKGDPKRKALFVTGNDPEAVATVAAFVDHMGFDTVVHNNLADGIMTEPGSPLFGASLRYAELKDIIDHFDQTEFGKEVAAQTHK | failed
MMANHLVKPDNRNCKRPRELESPVPDSPQLSSLGKSDSSFSEISGLFYKDEALEKDLNDVSKEINLMLSTYAKLLSERAAVDASYIDEIDELFKEANAIENFLIQKREFLRQRFTVIANTLHR | failed
MMDFDFLEGKRLTEDVALDETMVWNEDIEMLDLHLVATSALIGVVHRVSYELLSRYLPNDYTAVVVETLARHVKAVPTGTRVAVGVRVVGVVGNRVKFRGIVMSGDEKILEAEFVRAIVPREKLRRLALEKAEKTSRLFGI | not failed
MMDRDDDGYAERVAFYDTVYEQPERALDLAWLRRWLPPQFFGRRVLELACGSGYWTQYLAPAARAYQALDVSAGALALAGQRPGVGGVAFAVGEVETLPRPAQPFDAVFAGLWFSHLPRQRREGALAALHGCLAPGATVILLDNSEAQGGQFPVVEYDSEGNGYQSRPRHDGGQSRVLKNFPTEAEFRILLAPYGAAEIALMRREHFWLLRYRLPSRH | failed
MMDYGIDIWGNENFIIKNGKVCINYEKKPAIIDIVKELRDDGYKGPLLLRFPHLIQKQIENIYGNFNKARKEFGYKGGFNAVYPLKVNQYPGFVKNLVKLGKDYNYGLEAGSKAELLLAMAYNNEGAPITVNGFKDRELINIGFIAAEMGHNITLTIEGLNELEAIIDIAKERFKPKPNIGLRVRLHSAGVGIWAKSGGINSKFGLTSTELIEAVNLLKENKLLEQFTMIHFHLGSQITEIHPLKKALNEAGNIYTELRKMGAKNLKAINLGGGLAVEYSQFKNEKSRNYTLREYANDVVFILKNIAEQKKDLEPDIFIESGRFVAANHAVLIAPVLELFSQEYAENKLILKKQNPKLIDELYDLYKSIKPSNALEYLHDSIDHLESILTLFDLGYVDLQDRSNAEILTHLITKKAILLLGDKQNPADLLAIQDEVQERYLVNFSLFQSMPDFWGLEQNFPIMPLDRLDEEPTRSASIWDITCDSDGEISYSKDKPLFLHDVDVEKENYFLGFFLVGAYQEVLGMKHNLFTHPTEAIISINEKGYEVEGIIEAQSILDTLEDLDYDIHAIMDILNERISNSKLVNDKQKKHILGELYLFLNDNGYLKSIGVLEHHHHHH | not failed
MMEDRSLNSHGMPSRRGLEPLEWGATGLTVVLSVAAAATQQAILTAIAPLPLSLAVGLNWVSRKKLDDQFQVFRQQQEAKIAELVASQGQQQSELASLNLALAQVRDRLEDVQKQVMQLNQGAQDLHDYTRILDTEQKQIEEVLDCLREIEKNTQVIQVNPSHAKAYYNRGLTHQRLGDAEAAILDYTEAIRLNDTYAKAYHNRGVARSTLGDRKGAVEDLRTAAKLFFEQGDISSYQRARDLAKRIHEVGSIEQDNQEGTIKEVPLEILFS | failed
MMEKDERFKQAEFGAIVGIVGNIILAIIKAVIGYIGNSKALLADAVHSASDVIGSLAVLFGLRAAKQPPDEDHPYGHGKAESISAIIVAVLLFIVGIEIAISSIKAFSQELEPPKGITIFAVVLSIIVKEGMFQYKFRLGKRVNSDAIIANAYEHRSDVFSSIAALIGICAAIIGGKFGLDWLVYADPIAGLFVSLLVAKMAWSIGTEAIHATLDHVLHEEDVIPLREAVLQIDGVKKIGSLYAREHGHYVIVDIKVSVDPYITVEEGHRIGKRVKETLMLQDNVQNVFVHINPYSPN | failed
MMGDYGITEEDLVIEEAQGYPRAYTKICRDFDAFPYKNGPPFTFMPYILQQNESLRCREVDQMFPVIDPKARPTTKPKIFLSLLWKQLNHLGNAGFDPAVIRIDPYGNVVYFHADSASPLAWSFDHWFPCSRGGLTVPSNLRIVQWQARKNKKDKLEFLVPWWDLQVGISVNQFLSIFAASSSDFRYR | failed
MMGGKGGFYRHLAVEGNFGGTTQSLAVCSTIGANSVKMPTSFLYTPHRQAEFMALLQISEPGMSASPHRHRLAAGIDLGTTNSLVATVRSGSAACLPDAEGRVTLPSVVRYLENGGIEVGKTALSAQKTDPLNTVSSAKRLIGRTLADLHQNTHYLPYRFGDNQRVIELHTRQGVKTPVEVSAEILKTLKSRAEETLGGDLVGVVITVPAYFDDAQRQATKDAARLAGLNVLRLLNEPTAAAIAYGLDNASEGTFVVYDLGGGTFDVSVLQLTKGLFEVKATGGNSALGGDDFDHRLFCRLLEQNGLSQLNEQDSQLLLSLVRAAKEQLTTQTEARIQATLSDGMAIDTSISRAEFHNLTQHLVMKTLEPVTQALKDAGVGKNEVKGVIMVGGSTRMLHVQQAVATFFGQTPLNNLNPDEVVALGAAIQANVLAGNKTDGEWLLLDVTPLSLGLETYGGLAEKIIPRNSTIPTARAQDFTTFKDGQTAMTIHVVQGERELVSDCRSLAKFTLRGIPPMAAGAARIRVTFQIDADGLLSVSAQEQSTGVQAQIEVKPSYGLDDGAITRMLKDSMDNAAEDMAARARAEAVVEAESLTDAVNAALELDSDLLDAKELQQIRQGIADLQGRLKDGKAEDIRSAVAKLSRSTDNFAAKRMNRNIQRALTGQSVDNI | failed
MMHHALHIKNGIVIDPKNGVKAEKMDIFVKNGKIVEESEVKGEDVKVIDANNKLVVAGGVDMHAHIAGSKINTGRTMRPEEMRVVRNIAGKFRAAVGRVLLTSPLEHHHHHH | failed
